B1: M1IC-DG2D (bispecific antibody)
chain: not shown
heavy: EVKLDETGGGLVQPGRPMKLSCVASGFTFSDYWMNWVRQSPEKGLEWVAQIRNKPYNYETYYSDSVKGRFTISRDDSKSSVYLQMNNLRVEDMGIYYCTGSYYGMDYWGQGTSVTVSSASTKGPSVFPLAPSSKSTSGGTAALGCLVKDYFPEPVTVSWNSGALTSGVHTFPAVLQSSGLYSLSSVVTVPSSSLGTQTYICNVNHKPSNTKVDKKVEPKSCDKTHTCPPCPAPPVAGPSVFLFPPKPKDTLMISRTPEVTCVVVAVSHEAPEVQFNWYVDGVEVHNAKTKPREEQFNSTFRVVSVLTVVHQDWLNGKEYKCKVSNKGLPAPIEKTISKTKGQPREPQVYTLPPCRDELTKNQVSLWCLVKGFYPSDIAVEWESNGQPENNYKTTPPVLDSDGSFFLYSKLTVDKSRWQQGNVFSCSVMHEALHNHYTQKSLSLSPGK
light: DVVMTQTPLSLPVSLGDQASISCRSSQSLVHSNGNTYLRWYLQKPGQSPKVLIYKVSNRFSGVPDRFSGSGSGTDFTLKISRVEAEDLGVYFCSQSTHVPWTFGGGTKLEIKRTVAAPSVFIFPPSDEQLKSGTASVVCLLNNFYPREAKVQWKVDNALQSGNSQESVTEQDSKDSTYSLSSTLTLSKADYEKHKVYACEVTHQGLSSPVTKSFNRGEC
notes: structure 1 isotype control; CH2 DG2DCH2; also called MlIC-DG2D
B2: M1IC-WT (bispecific antibody)
chain: not shown
heavy: not shown
light: DVVMTQTPLSLPVSLGDQASISCRSSQSLVHSNGNTYLRWYLQKPGQSPKVLIYKVSNRFSGVPDRFSGSGSGTDFTLKISRVEAEDLGVYFCSQSTHVPWTFGGGTKLEIKRTVAAPSVFIFPPSDEQLKSGTASVVCLLNNFYPREAKVQWKVDNALQSGNSQESVTEQDSKDSTYSLSSTLTLSKADYEKHKVYACEVTHQGLSSPVTKSFNRGEC
notes: structure 1 isotype control; CH2 WT; also called MlIC-WT
B3: M1IC-AAG (bispecific antibody)
chain: not shown
heavy: not shown
light: DVVMTQTPLSLPVSLGDQASISCRSSQSLVHSNGNTYLRWYLQKPGQSPKVLIYKVSNRFSGVPDRFSGSGSGTDFTLKISRVEAEDLGVYFCSQSTHVPWTFGGGTKLEIKRTVAAPSVFIFPPSDEQLKSGTASVVCLLNNFYPREAKVQWKVDNALQSGNSQESVTEQDSKDSTYSLSSTLTLSKADYEKHKVYACEVTHQGLSSPVTKSFNRGEC
notes: structure 1 isotype control; CH2 AAG
B4: M1IC-PG2 (bispecific antibody)
chain: not shown
heavy: EVKLDETGGGLVQPGRPMKLSCVASGFTFSDYWMNWVRQSPEKGLEWVAQIRNKPYNYETYYSDSVKGRFTISRDDSKSSVYLQMNNLRVEDMGIYYCTGSYYGMDYWGQGTSVTVSSASTKGPSVFPLAPSSKSTSGGTAALGCLVKDYFPEPVTVSWNSGALTSGVHTFPAVLQSSGLYSLSSVVTVPSSSLGTQTYICNVNHKPSNTKVDKKVEPKSCDKTHTCPPPPAPPVAGPSVFLFPPKPKDTLMISRTPEVTCVVVDVSHEDPEVQFNWYVDGVEVHNAKTKPREEQFNSTFRVVSVLTVVHQDWLNGKEYKCKVSNKGLPAPIEKTISKTKGQPREPQVYTLPPCRDELTKNQVSLWCLVKGFYPSDIAVEWESNGQPENNYKTTPPVLDSDGSFFLYSKLTVDKSRWQQGNVFSCSVMHEALHNHYTQKSLSLSPGK
light: DVVMTQTPLSLPVSLGDQASISCRSSQSLVHSNGNTYLRWYLQKPGQSPKVLIYKVSNRFSGVPDRFSGSGSGTDFTLKISRVEAEDLGVYFCSQSTHVPWTFGGGTKLEIKRTVAAPSVFIFPPSDEQLKSGTASVVCLLNNFYPREAKVQWKVDNALQSGNSQESVTEQDSKDSTYSLSSTLTLSKADYEKHKVYACEVTHQGLSSPVTKSFNRGEC
notes: structure 1 isotype control; CH2 PG2CH2
B5: M1IC-NA (bispecific antibody)
chain: not shown
heavy: EVKLDETGGGLVQPGRPMKLSCVASGFTFSDYWMNWVRQSPEKGLEWVAQIRNKPYNYETYYSDSVKGRFTISRDDSKSSVYLQMNNLRVEDMGIYYCTGSYYGMDYWGQGTSVTVSSASTKGPSVFPLAPSSKSTSGGTAALGCLVKDYFPEPVTVSWNSGALTSGVHTFPAVLQSSGLYSLSSVVTVPSSSLGTQTYICNVNHKPSNTKVDKKVEPKSCDKTHTCPPCPAPELLGGPSVFLFPPKPKDTLMISRTPEVTCVVVDVSHEDPEVKFNWYVDGVEVHNAKTKPREEQYASTYRVVSVLTVLHQDWLNGKEYKCKVSNKALPAPIEKTISKAKGQPREPQVYTLPPCRDELTKNQVSLWCLVKGFYPSDIAVEWESNGQPENNYKTTPPVLDSDGSFFLYSKLTVDKSRWQQGNVFSCSVMHEALHNHYTQKSLSLSPGK
light: DVVMTQTPLSLPVSLGDQASISCRSSQSLVHSNGNTYLRWYLQKPGQSPKVLIYKVSNRFSGVPDRFSGSGSGTDFTLKISRVEAEDLGVYFCSQSTHVPWTFGGGTKLEIKRTVAAPSVFIFPPSDEQLKSGTASVVCLLNNFYPREAKVQWKVDNALQSGNSQESVTEQDSKDSTYSLSSTLTLSKADYEKHKVYACEVTHQGLSSPVTKSFNRGEC
notes: structure 1 isotype control; CH2 N297A
B6: M1IC-G2D (bispecific antibody)
chain: not shown
heavy: EVKLDETGGGLVQPGRPMKLSCVASGFTFSDYWMNWVRQSPEKGLEWVAQIRNKPYNYETYYSDSVKGRFTISRDDSKSSVYLQMNNLRVEDMGIYYCTGSYYGMDYWGQGTSVTVSSASTKGPSVFPLAPSSKSTSGGTAALGCLVKDYFPEPVTVSWNSGALTSGVHTFPAVLQSSGLYSLSSVVTVPSSSLGTQTYICNVNHKPSNTKVDKKVEPKSCDKTHTCPPCPAPPVAGPSVFLFPPKPKDTLMISRTPEVTCVVVDVSHEAPEVQFNWYVDGVEVHNAKTKPREEQFNSTFRVVSVLTVVHQDWLNGKEYKCKVSNKGLPAPIEKTISKTKGQPREPQVYTLPPCRDELTKNQVSLWCLVKGFYPSDIAVEWESNGQPENNYKTTPPVLDSDGSFFLYSKLTVDKSRWQQGNVFSCSVMHEALHNHYTQKSLSLSPGK
light: DVVMTQTPLSLPVSLGDQASISCRSSQSLVHSNGNTYLRWYLQKPGQSPKVLIYKVSNRFSGVPDRFSGSGSGTDFTLKISRVEAEDLGVYFCSQSTHVPWTFGGGTKLEIKRTVAAPSVFIFPPSDEQLKSGTASVVCLLNNFYPREAKVQWKVDNALQSGNSQESVTEQDSKDSTYSLSSTLTLSKADYEKHKVYACEVTHQGLSSPVTKSFNRGEC
notes: structure 1 isotype control; CH2 G2DCH2
B7: M1IC-FES (bispecific antibody)
chain: not shown
heavy: EVKLDETGGGLVQPGRPMKLSCVASGFTFSDYWMNWVRQSPEKGLEWVAQIRNKPYNYETYYSDSVKGRFTISRDDSKSSVYLQMNNLRVEDMGIYYCTGSYYGMDYWGQGTSVTVSSASTKGPSVFPLAPSSKSTSGGTAALGCLVKDYFPEPVTVSWNSGALTSGVHTFPAVLQSSGLYSLSSVVTVPSSSLGTQTYICNVNHKPSNTKVDKKVEPKSCDKTHTCPPCPAPEFEGGPSVFLFPPKPKDTLMISRTPEVTCVVVDVSHEDPEVKFNWYVDGVEVHNAKTKPREEQYNSTYRVVSVLTVLHQDWLNGKEYKCKVSNKALPASIEKTISKAKGQPREPQVYTLPPCRDELTKNQVSLWCLVKGFYPSDIAVEWESNGQPENNYKTTPPVLDSDGSFFLYSKLTVDKSRWQQGNVFSCSVMHEALHNHYTQKSLSLSPGK
light: DVVMTQTPLSLPVSLGDQASISCRSSQSLVHSNGNTYLRWYLQKPGQSPKVLIYKVSNRFSGVPDRFSGSGSGTDFTLKISRVEAEDLGVYFCSQSTHVPWTFGGGTKLEIKRTVAAPSVFIFPPSDEQLKSGTASVVCLLNNFYPREAKVQWKVDNALQSGNSQESVTEQDSKDSTYSLSSTLTLSKADYEKHKVYACEVTHQGLSSPVTKSFNRGEC
notes: structure 1 isotype control; CH2 FES
B8: M1IC-SG2 (bispecific antibody)
chain: not shown
heavy: EVKLDETGGGLVQPGRPMKLSCVASGFTFSDYWMNWVRQSPEKGLEWVAQIRNKPYNYETYYSDSVKGRFTISRDDSKSSVYLQMNNLRVEDMGIYYCTGSYYGMDYWGQGTSVTVSSASTKGPSVFPLAPSSKSTSGGTAALGCLVKDYFPEPVTVSWNSGALTSGVHTFPAVLQSSGLYSLSSVVTVPSSSLGTQTYICNVNHKPSNTKVDKKVEPKSCDKTHTCPPSPAPPVAGPSVFLFPPKPKDTLMISRTPEVTCVVVDVSHEDPEVQFNWYVDGVEVHNAKTKPREEQFNSTFRVVSVLTVVHQDWLNGKEYKCKVSNKGLPAPIEKTISKTKGQPREPQVYTLPPCRDELTKNQVSLWCLVKGFYPSDIAVEWESNGQPENNYKTTPPVLDSDGSFFLYSKLTVDKSRWQQGNVFSCSVMHEALHNHYTQKSLSLSPGK
light: DVVMTQTPLSLPVSLGDQASISCRSSQSLVHSNGNTYLRWYLQKPGQSPKVLIYKVSNRFSGVPDRFSGSGSGTDFTLKISRVEAEDLGVYFCSQSTHVPWTFGGGTKLEIKRTVAAPSVFIFPPSDEQLKSGTASVVCLLNNFYPREAKVQWKVDNALQSGNSQESVTEQDSKDSTYSLSSTLTLSKADYEKHKVYACEVTHQGLSSPVTKSFNRGEC
notes: structure 1 isotype control; CH2 SG2CH2
B9: M1IC-GG2 (bispecific antibody)
chain: not shown
heavy: EVKLDETGGGLVQPGRPMKLSCVASGFTFSDYWMNWVRQSPEKGLEWVAQIRNKPYNYETYYSDSVKGRFTISRDDSKSSVYLQMNNLRVEDMGIYYCTGSYYGMDYWGQGTSVTVSSASTKGPSVFPLAPSSKSTSGGTAALGCLVKDYFPEPVTVSWNSGALTSGVHTFPAVLQSSGLYSLSSVVTVPSSSLGTQTYICNVNHKPSNTKVDKKVEPKSCDKTHTCPPGPAPPVAGPSVFLFPPKPKDTLMISRTPEVTCVVVDVSHEDPEVQFNWYVDGVEVHNAKTKPREEQFNSTFRVVSVLTVVHQDWLNGKEYKCKVSNKGLPAPIEKTISKTKGQPREPQVYTLPPCRDELTKNQVSLWCLVKGFYPSDIAVEWESNGQPENNYKTTPPVLDSDGSFFLYSKLTVDKSRWQQGNVFSCSVMHEALHNHYTQKSLSLSPGK
light: DVVMTQTPLSLPVSLGDQASISCRSSQSLVHSNGNTYLRWYLQKPGQSPKVLIYKVSNRFSGVPDRFSGSGSGTDFTLKISRVEAEDLGVYFCSQSTHVPWTFGGGTKLEIKRTVAAPSVFIFPPSDEQLKSGTASVVCLLNNFYPREAKVQWKVDNALQSGNSQESVTEQDSKDSTYSLSSTLTLSKADYEKHKVYACEVTHQGLSSPVTKSFNRGEC
notes: structure 1 isotype control; CH2 GG2CH2
B10: CD38-M1-FES (bispecific antibody, human IgG1, kappa)
chain: QVQLVESGGGVVQPGRSLRLSCAASGFTFSTYAMNWVRQAPGKGLEWVARIRSKYNNYATYYADSVKDRFTISRDDSKNTLYLQMNSLRAEDTAVYYCARHGNFGNSYVSWFAYWGQGTLVTVSSGGGGSGGGGSGGGGSQTVVTQEPSLTVSPGGTVTLTCRSSTGAVTTSNYANWVQQKPGQAPRGLIGGTNKRAPGVPARFSGSLLGGKAALTLSGVQPEDEAEYYCALWYSNLWVFGGGTKVEIKGGGGSDKTHTCPPCPAPEFEGGPSVFLFPPKPKDTLMISRTPEVTCVVVDVSHEDPEVKFNWYVDGVEVHNAKTKPREEQYNSTYRVVSVLTVLHQDWLNGKEYKCKVSNKALPASIEKTISKAKGQPREPQVCTLPPSRDELTKNQVSLSCAVKGFYPSDIAVEWESNGQPENNYKTTPPVLDSDGSFFLVSKLTVDKSRWQQGNVFSCSVMHEALHNHYTQKSLSLSPGK
heavy: EVQLLESGGGLVQPGGSLRLSCAVSGFTFNSFAMSWVRQAPGKGLEWVSAISGSGGGTYYADSVKGRFTISRDNSKNTLYLQMNSLRAEDTAVYFCAKDKILWFGEPVFDYWGQGTLVTVSSASTKGPSVFPLAPSSKSTSGGTAALGCLVKDYFPEPVTVSWNSGALTSGVHTFPAVLQSSGLYSLSSVVTVPSSSLGTQTYICNVNHKPSNTKVDKKVEPKSCDKTHTCPPCPAPEFEGGPSVFLFPPKPKDTLMISRTPEVTCVVVDVSHEDPEVKFNWYVDGVEVHNAKTKPREEQYNSTYRVVSVLTVLHQDWLNGKEYKCKVSNKALPASIEKTISKAKGQPREPQVYTLPPCRDELTKNQVSLWCLVKGFYPSDIAVEWESNGQPENNYKTTPPVLDSDGSFFLYSKLTVDKSRWQQGNVFSCSVMHEALHNHYTQKSLSLSPGK
light: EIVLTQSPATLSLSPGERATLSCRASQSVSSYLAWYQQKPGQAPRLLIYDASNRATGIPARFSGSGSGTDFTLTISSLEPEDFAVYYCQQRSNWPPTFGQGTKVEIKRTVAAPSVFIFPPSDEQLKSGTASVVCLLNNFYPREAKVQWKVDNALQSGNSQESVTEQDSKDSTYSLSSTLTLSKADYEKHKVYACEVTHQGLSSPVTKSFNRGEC
notes: structure 1; CD38 x CD3; CH2 FES

Each binder was assayed against T1, Monkey CD3 (monkey) (assay: flow cytometry, monkey T cells).
T1 construct: whole, on cells; also called CD3 of monkey CD3 positive T cells
For B1, the EC50 was 16 nM.
With B2 the EC50 was 19.8 nM.
B3 gave an EC50 of 8.79 nM.
B4 was tested, and the EC50 was 17.8 nM.
Binder B5 has an EC50 of 9.63 nM.
In the case of B6, the EC50 is reported as 10.6 nM.
Binder B7 has an EC50 of 11.4 nM.
Work on B8 yielded an EC50 of 13.2 nM.
Work on B9 yielded an EC50 of 13 nM.
B10 gave an EC50 of 291 nM.

Reference: patent publication US20220098307A1 (WUHAN YZY BIOPHARMA, published 2022)
